Target: TLR4 human recombinant protein (HY-P73586, MCE) (human) (UniProt O00206)
Test: SPR

Chain of UniProt O00206 (O00206 24-631, one chain of several): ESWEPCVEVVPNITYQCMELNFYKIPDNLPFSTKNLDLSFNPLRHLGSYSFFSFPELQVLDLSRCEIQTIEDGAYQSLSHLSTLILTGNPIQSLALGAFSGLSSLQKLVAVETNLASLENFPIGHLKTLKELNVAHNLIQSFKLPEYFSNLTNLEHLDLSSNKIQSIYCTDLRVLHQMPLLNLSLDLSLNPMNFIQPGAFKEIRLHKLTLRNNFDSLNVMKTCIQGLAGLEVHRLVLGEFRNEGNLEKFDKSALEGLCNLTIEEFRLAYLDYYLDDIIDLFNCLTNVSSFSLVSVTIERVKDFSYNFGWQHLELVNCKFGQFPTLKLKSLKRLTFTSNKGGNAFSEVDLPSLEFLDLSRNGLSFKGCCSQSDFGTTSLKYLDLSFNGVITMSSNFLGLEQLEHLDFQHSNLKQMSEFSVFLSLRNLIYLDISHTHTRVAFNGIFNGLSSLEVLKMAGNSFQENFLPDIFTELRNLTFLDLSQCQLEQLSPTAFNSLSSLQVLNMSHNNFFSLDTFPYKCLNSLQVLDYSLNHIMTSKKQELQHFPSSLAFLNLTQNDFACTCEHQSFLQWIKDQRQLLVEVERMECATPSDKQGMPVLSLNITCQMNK

PBP1B without the GST tag, non-transmembrane domain (domain or fragment)
Kd: 0.269 nM

From article PMC11726454
